Laboratory results taken from patent US20230034660A1, “PEPTIDES THAT ENHANCE NMDA RECEPTOR FUNCTION AND USE THEREOF” (University of Pittsburgh - Of the Commonwealth System of …, priority 2019, published 2023).
Each block holds one molecule with its values, some of them ahead of it.

Columns and labels:
NMDAR = NMDAR EPSCs in DCN cartwheel cells in brain slices, ZX1 potentiation; type: cell-based, mice; details: nimodipine 20 μM at least 20 minutes prior to recordings; ZX1 100 μM
GluN1/2A receptors = target: T1, GluN1/2A receptors (Rattus norvegicus, UniProt Q00959); assay: Zinc inhibition of glutamate-evoked currents in tSA201 cells transfected with GluN1/GluN2A; type: cell-based; details: vehicle, 1 mM glutamate steady-state current, read-out: IC50 for zinc block in vehicle treated cells
T1 construct: expressed in transfected cells; host or cells: human embryonic kidney tSA201 cells
Experimental: Human embryonic kidney tSA201 cells were maintained in DMEM supplemented with 10% fetal bovine serum and 1% GlutaMAX, as previously described (Glasgow and Johnson, 2014). Cells were plated in 35 mm petri dishes with three 15 mm glass coverslips treated with poly D-lysine (0.1 mg/ml) and rat-tail collagen (0.1 mg/ml) at a density of 1×10^5 cells/dish. Eighteen to 30 hours after plating, the cells were co-transfected using FuGENE 6 Transfection Reagent with cDNA encoding enhanced green fluorescent protein (eGFP), for identification of transfected cells, and WT rat NMDAR subunits GluN1-1a (GluN1; GenBank X63255) and GluN2A (GenBank M91561 in pcDNA1). GluN1-1 a and eGFP were expressed using a specialized pCl-neo vector with cDNA encoding eGFP inserted between the CMV promoter and the GluN1 open reading frame (Yi et al., 2018). […]
Whole-cell voltage-clamp recordings from tSA201 cells were performed 18-30 hours after transfection. […] Whole-cell currents were recorded using an Axopatch 200A patch-clamp amplifier (Molecular Devices), low-pass filtered at 5 kHz, and sampled at 20 kHz in pClamp10.7 (Molecular Devices). In all recordings from tSA201 cells, series resistance was compensated 85-90% and an empirically determined −6 mV liquid junction potential between the intracellular pipette solution and the extracellular recording solution was corrected. […]

[1] = target: ZnT1 in mouse brain slices (mouse) (UniProt Q60738); assay: cell-based or functional assay
[2] = target: T2, GluN2A subunit of NMDAR in rat cortical cultures (rat, UniProt Q00959 23-1464); assay: proximity ligation assay in rat cortical cultures (FIG. 3A legend)
T2 construct: whole, on cells; Endogenous protein in neurons, detected with a mouse anti-GluN2A antibody in the PLA
T2 sequence (Q00959 23-1464): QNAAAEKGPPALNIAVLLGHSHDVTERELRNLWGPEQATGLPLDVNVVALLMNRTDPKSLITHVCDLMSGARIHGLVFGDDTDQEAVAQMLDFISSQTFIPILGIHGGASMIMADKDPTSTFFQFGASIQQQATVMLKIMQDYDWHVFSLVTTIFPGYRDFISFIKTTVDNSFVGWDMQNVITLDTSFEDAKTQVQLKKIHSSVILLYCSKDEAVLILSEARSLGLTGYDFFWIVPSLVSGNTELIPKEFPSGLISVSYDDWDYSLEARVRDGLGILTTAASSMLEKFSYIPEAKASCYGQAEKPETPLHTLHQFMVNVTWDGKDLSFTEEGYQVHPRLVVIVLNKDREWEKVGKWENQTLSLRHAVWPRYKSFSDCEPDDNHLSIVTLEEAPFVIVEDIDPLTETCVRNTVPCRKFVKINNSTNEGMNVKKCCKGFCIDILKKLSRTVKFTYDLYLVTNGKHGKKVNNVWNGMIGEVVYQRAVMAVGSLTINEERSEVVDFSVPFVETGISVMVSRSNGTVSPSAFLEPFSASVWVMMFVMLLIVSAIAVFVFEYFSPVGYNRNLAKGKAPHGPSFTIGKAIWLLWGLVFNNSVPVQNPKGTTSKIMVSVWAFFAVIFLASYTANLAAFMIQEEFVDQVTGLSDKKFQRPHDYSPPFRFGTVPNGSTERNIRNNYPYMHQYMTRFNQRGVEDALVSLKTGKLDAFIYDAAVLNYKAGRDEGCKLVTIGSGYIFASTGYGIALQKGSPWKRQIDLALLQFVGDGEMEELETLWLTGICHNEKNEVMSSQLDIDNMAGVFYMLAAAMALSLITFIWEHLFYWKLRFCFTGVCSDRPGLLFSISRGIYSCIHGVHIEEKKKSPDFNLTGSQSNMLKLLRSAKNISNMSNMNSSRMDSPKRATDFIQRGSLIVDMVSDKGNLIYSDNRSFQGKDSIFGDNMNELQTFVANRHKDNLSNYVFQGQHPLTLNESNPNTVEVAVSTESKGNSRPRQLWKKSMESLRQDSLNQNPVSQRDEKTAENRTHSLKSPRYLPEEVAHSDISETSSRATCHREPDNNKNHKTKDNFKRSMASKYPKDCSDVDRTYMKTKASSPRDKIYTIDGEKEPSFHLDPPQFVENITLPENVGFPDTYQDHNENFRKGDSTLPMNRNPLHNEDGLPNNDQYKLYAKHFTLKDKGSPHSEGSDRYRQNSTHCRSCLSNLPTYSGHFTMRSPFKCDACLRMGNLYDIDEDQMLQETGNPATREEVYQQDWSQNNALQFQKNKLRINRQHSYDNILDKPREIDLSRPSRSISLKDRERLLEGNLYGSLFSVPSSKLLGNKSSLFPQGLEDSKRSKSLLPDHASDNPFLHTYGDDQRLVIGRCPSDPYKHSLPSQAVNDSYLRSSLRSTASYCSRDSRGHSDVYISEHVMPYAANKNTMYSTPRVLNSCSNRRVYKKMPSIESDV

T1 sequence (Q00959 23-1464, other chains not shown): as the sequence (Q00959 23-1464) above

Molecule: COCCOC(=O)C1=C(C)NC(C)=C(C(=O)OC(C)C)C1c1cccc([N+](=O)[O-])c1 (centres unmarked) [Nimodipine, reference compound]
ZX1 potentiation of NMDAR EPSCs in nimodipine-treated slices (NMDAR): 23.6±6.9%

Molecule: [Zn+2] [zinc]
IC50 (GluN1/2A receptors): 21.8 ± 2.09 nM

The remaining lines, values ahead:

Average effect of ZX1 on L2/3 PN NMDAR Lev-EPSCs amplitudes normalized to control, auditory cortex slices incubated with scramble [1]: 159% | Average effect of ZX1 on L2/3 PN NMDAR Lev-EPSCs amplitudes normalized to control, auditory cortex slices incubated with the peptide [1]: 99% | ZX1 potentiation of NMDAR EPSCs, DCN cartwheel cells, 100 Hz, slices treated with N2AZ [1]: 1.95% | ZX1 potentiation of NMDAR-mediated synaptic currents, DCN cartwheel cells, 20 Hz, slices treated with N2AZ (3 µM) [1]: 19.4% | ZX1 potentiation of NMDAR-mediated synaptic currents, DCN cartwheel cells, 20 Hz, slices treated with scN2AZ (3 µM) [1]: 47.3%
Molecule: GluN2A subunit of NMDAR in mouse brain slices (from UniProt P35436 23-1464) (receptor)

binding result [2]: binds
B1: ZnT1 in rat cortical cultures (other, UniProt Q62720 1-507, looked up)
chain: MGCWGRNRGRLLCMLLLTFMFMVLEVVVSRVTASLAMLSDSFHMLSDVLALVVALVAERFARRTHATQKNTFGWIRAEVMGALVNAIFLTGLCFAILLEAVERFIEPHEMQQPLVVLSVGVAGLLVNVLGLCLFHHHSGEGQGAGHGHSHGHGHGHLAKGARKAGRAGGEAGAPPGRAPDQEPDQEETNTLVANTSNSNGLKADQAEPEKLRSDDPVDVQVNGNLIQESDSLESEDNRAGQLNMRGVFLHVLGDALGSVIVVVNALVFYFSWKGCTEDDFCVNPCFPDPCKSSVELMNSTQAPMHEAGPCWVLYLDPTLCIIMVCILLYTTYPLLKESALILLQTVPKQIDIKHLVKELRDVEGVEEVHELHVWQLAGSRIIATAHIKCEDPASYMQVAKTIKDVFHNHGIHATTIQPEFASVGSKSSVVPCELACRTQCALKQCCGTRPQVHSGKEAEKAPTVSISCLELSENLEKKPRRTKAEGSVPAVVIEIKNVPNKQPESSL
notes: whole, on cells; Endogenous protein in neurons, detected with a rabbit anti-ZnT1 antibody in the PLA; also called zinc transporter 1
